B1: THAP1; numbered along this chain (parent)
chain: MVQSCSAYGCKNRYDKDKPVSFHKFPLTRPSLCKEWEAAVRRKNFKPTKYSSICSEHFTPDCFKRECNNKLLKENAVPTIFLCTEPHDKKEDLLEPQEQLPPPPLPPPVSQVDAAIGLLMPPLQTPVNLSVFCDHNYTVEDTMHQRKRIHQLEQQVEKLRKKLKTAQQRCRRQERQLEKLKEVVHFQKEKDDVSERGYVILPNDYFEIVEVPA

The data set covers variants of B1. Nature of the data set: THAP1 transcriptional activity (GFP+/GFP- enrichment relative to wild-type constructs) (ratio to WT); higher = more THAP1 activity (PSMB5 reporter activation). As to conditions: with PSMB5 promoter-GFP reporter. Here is the method: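 Deep mutational scan of human THAP1. Site-saturation single amino acid variant library (residues 2-213) was expressed by lentivirus at MOI ~0.3 in THAP1-knockout HEK-293T cells carrying an endogenous PSMB5 promoter-GFP knock-in reporter. Five days post-transduction, BFP+ cells were FACS-sorted into GFP dim and GFP bright populations and variants were counted by Illumina sequencing. Activity is the GFP-bright/GFP-dim read fold change, mean of 2 replicates, divided by the mean fold change of wild-type (synonymous) constructs in the same screen pool; WT = 1.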
Turning to R41H, the THAP1 transcriptional activity stood at 0.827.

For the variant K188G, the THAP1 transcriptional activity worked out at 1.05.

Regarding K188M, the THAP1 transcriptional activity was 0.605.

For K188E, the THAP1 transcriptional activity amounted to 0.506.

Regarding E37N, the THAP1 transcriptional activity turned out to be 0.451.

For E37I, the THAP1 transcriptional activity is 0.988.

In the case of E37W, the THAP1 transcriptional activity is 0.0974.

Q99K: the THAP1 transcriptional activity amounted to 1.5.

On to Q99L, for which the THAP1 transcriptional activity stood at 1.11.

For Q99C, the THAP1 transcriptional activity turned out to be 0.535.

In the case of K89H, the THAP1 transcriptional activity worked out at 1.44.

Take K89S: the THAP1 transcriptional activity came to 2.9.

In the case of V139Q, the THAP1 transcriptional activity was 0.576.

As to V139Y, the THAP1 transcriptional activity stood at 0.59.

For V139I, the THAP1 transcriptional activity was 0.897.

Regarding A7R, the THAP1 transcriptional activity was found to be 0.122.

Regarding A7S, the THAP1 transcriptional activity amounted to 0.122.

Turning to F206R, the THAP1 transcriptional activity was 0.87.

P103R: the THAP1 transcriptional activity amounted to 1.56.

As for P103W, the THAP1 transcriptional activity worked out at 0.806.

Take V184L: the THAP1 transcriptional activity is 0.923.

For the variant V184P, the THAP1 transcriptional activity was found to be 0.617.

As for P102A, the THAP1 transcriptional activity stood at 1.01.

As to P102V, the THAP1 transcriptional activity came to 2.39.

For the variant H23A, the THAP1 transcriptional activity was found to be 0.116.

In the case of H23K, the THAP1 transcriptional activity is 0.125.

P101W: the THAP1 transcriptional activity stood at 0.985.

With P101I, the THAP1 transcriptional activity was 1.27.

For H150V, the THAP1 transcriptional activity came to 1.1.

In the case of K190I, the THAP1 transcriptional activity was 1.48.

Take K190L: the THAP1 transcriptional activity turned out to be 0.835.

Turning to E210A, the THAP1 transcriptional activity was found to be 0.354.

Consider E210P, for which the THAP1 transcriptional activity worked out at 0.35.

Turning to E210Q, the THAP1 transcriptional activity is 1.15.

On to F186T, for which the THAP1 transcriptional activity worked out at 1.21.

Take F186G: the THAP1 transcriptional activity worked out at 1.63.

As to P202Q, the THAP1 transcriptional activity amounted to 0.911.

Turning to P202K, the THAP1 transcriptional activity was 0.636.

P202H: the THAP1 transcriptional activity came out at 1.12.

For R42A, the THAP1 transcriptional activity amounted to 0.127.

As for R42D, the THAP1 transcriptional activity came to 0.0738.

With R42V, the THAP1 transcriptional activity was determined as 0.136.

Regarding R42W, the THAP1 transcriptional activity stood at 0.128.

Regarding A115Y, the THAP1 transcriptional activity was found to be 0.256.

Take Q154E: the THAP1 transcriptional activity worked out at 0.776.

Turning to E98G, the THAP1 transcriptional activity came out at 1.03.

In the case of K179N, the THAP1 transcriptional activity came to 0.51.

Turning to K179G, the THAP1 transcriptional activity is 0.4.

For the variant C170R, the THAP1 transcriptional activity worked out at 0.609.

For P60T, the THAP1 transcriptional activity is 0.758.

Regarding P60K, the THAP1 transcriptional activity is 0.834.

As for P60G, the THAP1 transcriptional activity was 0.443.

As for E189A, the THAP1 transcriptional activity turned out to be 1.22.

As for E189H, the THAP1 transcriptional activity is 0.949.

For the variant I200Q, the THAP1 transcriptional activity is 1.09.

Turning to T84H, the THAP1 transcriptional activity was determined as 0.92.

In the case of T84Q, the THAP1 transcriptional activity is 1.65.

Regarding T84F, the THAP1 transcriptional activity was determined as 1.21.

Regarding T84D, the THAP1 transcriptional activity was found to be 0.604.

For the variant T84E, the THAP1 transcriptional activity was determined as 4.49.

Turning to V77N, the THAP1 transcriptional activity was 0.195.

Turning to K161V, the THAP1 transcriptional activity amounted to 0.461.

As for K161P, the THAP1 transcriptional activity stood at 0.172.

Regarding Q167D, the THAP1 transcriptional activity is 0.239.

Take C33E: the THAP1 transcriptional activity stood at 0.0749.

In the case of S130T, the THAP1 transcriptional activity worked out at 0.436.

For S130Y, the THAP1 transcriptional activity was 0.1.

Take E140P: the THAP1 transcriptional activity stood at 3.02.

Regarding L119F, the THAP1 transcriptional activity turned out to be 0.425.

As to L119C, the THAP1 transcriptional activity was 0.404.

On to L119N, for which the THAP1 transcriptional activity is 1.09.

On to L119Q, for which the THAP1 transcriptional activity came out at 0.718.

Turning to L119D, the THAP1 transcriptional activity was 0.609.

With P30H, the THAP1 transcriptional activity was found to be 0.384.

Take P30G: the THAP1 transcriptional activity turned out to be 0.282.

Regarding P30A, the THAP1 transcriptional activity was found to be 0.476.

Take P30N: the THAP1 transcriptional activity came out at 0.33.

For P30M, the THAP1 transcriptional activity was 0.245.

For N128H, the THAP1 transcriptional activity turned out to be 0.446.

Take N128S: the THAP1 transcriptional activity worked out at 0.395.

On to P212E, for which the THAP1 transcriptional activity stood at 0.535.

Take P212F: the THAP1 transcriptional activity was found to be 0.548.

As for E91Y, the THAP1 transcriptional activity came out at 0.85.

As for D113N, the THAP1 transcriptional activity amounted to 0.681.
